Where no end group is shown, it is not given here. [ ]: non-standard residue; d: D form. pS = N[C@@H](COP(=O)(O)O)C(=O)O
T1: GST-hKLHL3 (290–587) (human, UniProt Q9UH77 290-587)
T1 construct: Kelch-like protein 3 (KLHL3), human, residues 290-587; End of the tag read from the construct's name; also called GST-KLHL3 (290–587); GST-KLHL3; source: E. coli BL21, purified (glutathione-Sepharose column, eluted with glutathione); not shown: GST, N-terminal, kept
T1 sequence (looked up): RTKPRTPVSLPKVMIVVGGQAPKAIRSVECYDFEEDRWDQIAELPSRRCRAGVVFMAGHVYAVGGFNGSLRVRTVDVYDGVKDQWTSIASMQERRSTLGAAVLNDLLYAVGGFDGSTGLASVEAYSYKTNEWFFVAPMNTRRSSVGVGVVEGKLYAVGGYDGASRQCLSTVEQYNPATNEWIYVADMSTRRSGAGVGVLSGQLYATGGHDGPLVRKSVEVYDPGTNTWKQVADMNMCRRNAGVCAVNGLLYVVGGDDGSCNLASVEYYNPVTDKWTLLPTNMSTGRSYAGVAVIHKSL


Molecular target: T1, GST-hKLHL3 (290–587)
Assay: pull-down; FLAG-tagged synthetic WNK4 (557–580) peptides (1 μg) held on anti-FLAG antibody beads; GST-hKLHL3 (290–587) incubated 6 hours, washed with IP lysis buffer; immunoblot; two amounts of GST-KLHL3 (3-fold apart)
Conditions: both partners purified

Row | Binder | binding result
1 | EPEEPEADQHQPFLFRHASYSSTT (peptide, UniProt Q96J92 557-580, looked up, Held on anti-FLAG antibody beads; also called unphosphorylated peptide; source: synthetic peptide (bought: Eurofins Genomics)) [WNK4 (557–580)-WT peptide] | binds
2 | EPEEPEADQHQPFLFRHA[pS]YSSTT (peptide, UniProt Q96J92 557-580, looked up, also: FLAG tag, position not given here, Held on anti-FLAG antibody beads; also called peptide phosphorylated at Ser575; source: synthetic peptide (bought: Eurofins Genomics)) [WNK4 (557–580)-pS575 peptide] | binds

Source: publication PMC4702109, “Osmotic stress induces the phosphorylation of WNK4 Ser575 via the p38MAPK-MK pathway” (Scientific Reports, 2016)
